Assays:
[1] = Postprandial lipemic response in mice after a high-fat meal; format: in vivo; conditions: 50 μg leptin i.v. with test meal; ob/ob, db/db and control mice
Description: Control, ob/ob and db/db mice, starved since the day before, are force-fed with a meal which is very high in fat [60% fat (37% saturated, 27% monounsaturated and 36% polyunsaturated fatty acids), 20% protein and 20% carbohydrate] providing 56 kcal of energy/kg of the weight of the animal. Immediately after the meal (time=0 hour), the mice are injected intravenously with 200 μl of physiological saline solution. At various times, 20 μl of blood are collected via the caudal vein in tubes containing 90 μg of disodium EDTA, and after separating the plasma by centrifugation, the plasma concentration of triglyceridemia is determined with the aid of an enzymatic assay kit. Each point on the curves presented corresponds to the mean with standard deviation obtained for 3 measurements per animal and for 3 different animals.
The procedure is the same as above, except that immediately after the meal (time=0 hour), the mice are injected intravenously with either 200 μl of physiological saline solution, or 200 μl of the same solution containing 50 μg of murine recombinant leptin.
ob/ob mice, starved since the day before, are force-fed with a meal identical to that described above. […] Blood is collected between 2 and 3 hours after the meal and the plasma concentration of triglycerides (TG) is measured. […]

LSR = molecular target: T1, LSR (Homo sapiens, UniProt Q86X29); assay: Effect of leptin on the LSR activity of human fibroblasts HF; format: cell-based; conditions: incubation with increasing leptin, 50 μg/ml 125I-LDL, 500 μM oleate
T1 construct: GM00486A, GM007001B, GM00488C; host or cells: human skin fibroblasts, normal or HF (familial hypercholesterolemia, LDL-receptor deficient)
T1 sequence (Q86X29 1-649) 1: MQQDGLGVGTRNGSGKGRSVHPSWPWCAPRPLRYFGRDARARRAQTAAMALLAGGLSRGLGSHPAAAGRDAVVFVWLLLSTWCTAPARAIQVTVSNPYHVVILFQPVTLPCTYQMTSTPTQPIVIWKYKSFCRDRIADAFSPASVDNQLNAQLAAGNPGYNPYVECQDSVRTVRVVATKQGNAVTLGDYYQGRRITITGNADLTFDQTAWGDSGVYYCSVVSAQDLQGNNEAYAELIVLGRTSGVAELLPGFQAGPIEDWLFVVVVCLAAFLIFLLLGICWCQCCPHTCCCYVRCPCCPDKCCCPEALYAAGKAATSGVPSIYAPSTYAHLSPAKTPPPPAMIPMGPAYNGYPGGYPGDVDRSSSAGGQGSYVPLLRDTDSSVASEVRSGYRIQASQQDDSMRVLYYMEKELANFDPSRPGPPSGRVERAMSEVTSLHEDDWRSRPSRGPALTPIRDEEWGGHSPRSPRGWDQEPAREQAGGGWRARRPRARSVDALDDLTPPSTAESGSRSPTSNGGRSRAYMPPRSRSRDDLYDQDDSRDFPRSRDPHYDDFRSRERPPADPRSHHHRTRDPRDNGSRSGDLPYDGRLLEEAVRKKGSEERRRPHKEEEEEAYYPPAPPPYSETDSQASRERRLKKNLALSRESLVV
T1 sequence (Q86X29 1-649) 2: T1 sequence (Q86X29 1-649) 1
Description: The fibroblasts HF are incubated for 30 minutes at 37° C. with increasing concentrations of leptin, and then for 2 hours at 37° C. with 50 μg/ml of ^125I-LDL, in the presence of 500 μM oleate. The binding, internalization and degradation of the LDLs are measured as indicated in Example 1.

[2] = Long-term treatment with leptin on ob/ob mice: weight and postprandial lipemic response; format: in vivo
Description: The ob/ob obese mice received a daily injection of either leptin, or of an equivalent volume of sterile PBS, for 30 days. The injected doses are 50 μg/animal from day 0 to day 4, 100 μg/animal from day 5 to day 17, and 150 μg/animal from day 18 to day 30. Several parameters indicated below are measured: • the weight (FIG. 29 A): the change in weight is measured for 6 animals, over the duration of the treatment; • the postprandial lipemic response (FIG. 29 B): it is measured according to the protocol detailed in Example 5 on three animals in each group, on day 29; • the apparent number of LSR receptors (FIG. 29 C): it is measured according to the protocol detailed in Example 4 on three animals in each group, on day 30; • the quantity of LSR mRNA ([…]): it is estimated by Northern blotting as indicated in the protocol of Example 2.

B1: leptin: mouse recombinant leptin with hexahistidine end, expressed in E. coli (protein, UniProt P41160 22-167, looked up)
Leptin: VPIQKVQDDTKTLIKTIVTRINDISHTQSVSAKQRVTGLDFIPGLHPILSLSKMDQTLAVYQQVLTSLPSQNVLQIANDLENLRDLLHLLAFSKSCSLPQTSGLQKPESLDGVLEASLYSTEVVALSRLQGSLQDILQQLDVSPEC
modifications: hexahistidine tag
notes: mouse recombinant leptin with hexahistidine end, expressed in E. coli
postprandial lipemic response (plasma triglycerides) [1]: reduce
LSR activity of human fibroblasts HF (LSR): increased
weight ([2]; daily leptin injection over 30 days): very significant loss of weight
postprandial lipemic response ([2]; day 29 of leptin treatment): clear reduction

— patent publication US7919091B2, “Lipolysis stimulated receptor (LSR) specific antibodies” (Serono Genetics Institute S.A., priority 1997, dated 2011)
